Laboratory results: paper PMC7036032

Biological target: T1, CstF77 (human), Q12996
T1 chain: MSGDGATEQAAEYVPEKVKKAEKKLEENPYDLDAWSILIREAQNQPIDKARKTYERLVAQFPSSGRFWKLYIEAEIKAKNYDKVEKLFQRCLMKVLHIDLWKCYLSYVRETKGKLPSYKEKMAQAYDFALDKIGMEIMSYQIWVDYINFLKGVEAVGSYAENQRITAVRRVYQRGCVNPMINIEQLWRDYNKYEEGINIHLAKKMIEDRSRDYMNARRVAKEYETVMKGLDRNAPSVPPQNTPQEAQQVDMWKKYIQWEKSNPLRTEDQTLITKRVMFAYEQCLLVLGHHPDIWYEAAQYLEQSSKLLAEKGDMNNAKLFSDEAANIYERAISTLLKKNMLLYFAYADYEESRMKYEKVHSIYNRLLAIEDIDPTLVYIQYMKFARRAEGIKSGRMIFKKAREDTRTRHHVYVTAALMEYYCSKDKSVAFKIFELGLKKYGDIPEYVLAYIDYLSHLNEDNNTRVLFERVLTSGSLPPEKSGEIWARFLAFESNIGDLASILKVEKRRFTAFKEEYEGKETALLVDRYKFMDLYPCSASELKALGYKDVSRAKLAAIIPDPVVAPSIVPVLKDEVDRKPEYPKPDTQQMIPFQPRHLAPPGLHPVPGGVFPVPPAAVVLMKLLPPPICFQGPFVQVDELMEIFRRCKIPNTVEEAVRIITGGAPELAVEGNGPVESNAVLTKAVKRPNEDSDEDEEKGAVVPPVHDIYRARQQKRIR
Experiment: cryo-EM structure
Settings: remark: other sources report otherwise

B1: CstF77, Q12996 1-717 (natural protein)
chain: MSGDGATEQAAEYVPEKVKKAEKKLEENPYDLDAWSILIREAQNQPIDKARKTYERLVAQFPSSGRFWKLYIEAEIKAKNYDKVEKLFQRCLMKVLHIDLWKCYLSYVRETKGKLPSYKEKMAQAYDFALDKIGMEIMSYQIWVDYINFLKGVEAVGSYAENQRITAVRRVYQRGCVNPMINIEQLWRDYNKYEEGINIHLAKKMIEDRSRDYMNARRVAKEYETVMKGLDRNAPSVPPQNTPQEAQQVDMWKKYIQWEKSNPLRTEDQTLITKRVMFAYEQCLLVLGHHPDIWYEAAQYLEQSSKLLAEKGDMNNAKLFSDEAANIYERAISTLLKKNMLLYFAYADYEESRMKYEKVHSIYNRLLAIEDIDPTLVYIQYMKFARRAEGIKSGRMIFKKAREDTRTRHHVYVTAALMEYYCSKDKSVAFKIFELGLKKYGDIPEYVLAYIDYLSHLNEDNNTRVLFERVLTSGSLPPEKSGEIWARFLAFESNIGDLASILKVEKRRFTAFKEEYEGKETALLVDRYKFMDLYPCSASELKALGYKDVSRAKLAAIIPDPVVAPSIVPVLKDEVDRKPEYPKPDTQQMIPFQPRHLAPPGLHPVPGGVFPVPPAAVVLMKLLPPPICFQGPFVQVDELMEIFRRCKIPNTVEEAVRIITGGAPELAVEGNGPVESNAVLTKAVKRPNEDSDEDEEKGAVVPPVHDIYRARQQKRIR
B1 was tested, and the stoichiometry N was 2.
